# From patent US20180002425A1 (Scripps Research, published 2018)
# B1: heterodimeric bispecific antibody V-1/V-3 (bispecific antibody, V domains shown)
# VH 1: MAQVQLVQSGAEVKKPGSSVKVSCKASGGTFSSYAISWVRQAPGQGLEWMGGIIPIFGTANYAQKFQGRVTITADESTSTAYMELSSLRSEDTAVYYCARDQGYYYGSGGLDYWGQGTLVTVSS
# VL 1: DIQMTQSPSSLSASVGDRVTITCRASQSISSYLNWYQQKPGKAPKLLIYAASSLQSGVPSRFSGSGSGTDFTLTISSLQPEDFATYYCLQDYNYPLTFGGGTKVEIK
# VH 2: MAQVQLVQSGAEVKKPGASVKVSCKASGYTFTSYGISWVRQAPGQGLEWMGWISAYNGNTNYAQKLQGRVTMTTDTSTSTAYMELRSLRSDDTAVYYCARGVAAALSYWGQGTLVTVSS
# VL 2: QSALTQPASVSGSPGQSITISCTGTSSDVGAYNYVSWYQQHPGKAPKLMIYEVTKRPSGVPDRFSGSKSGNTASLTISGLQAEDEADYYCISFTASSTWAFGGGTKLTVLG
# notes: Heterodimer of two scFv-Fc chains (human IgG1 Fc, hinge to CH3) made by knobs-into-hole engineering: T366Y in the CH3 of one monomer and Y407T in the other; also called BsAb; bispecific heterodimeric antibody
# B2: EpoR antibody V-3 (scFv-Fc homodimer) (Fc fusion)
# VH: MAQVQLVQSGAEVKKPGASVKVSCKASGYTFTSYGISWVRQAPGQGLEWMGWISAYNGNTNYAQKLQGRVTMTTDTSTSTAYMELRSLRSDDTAVYYCARGVAAALSYWGQGTLVTVSS
# VL: QSALTQPASVSGSPGQSITISCTGTSSDVGAYNYVSWYQQHPGKAPKLMIYEVTKRPSGVPDRFSGSKSGNTASLTISGLQAEDEADYYCISFTASSTWAFGGGTKLTVLG
# B3: EpoR antibody V-1 (scFv-Fc homodimer) (Fc fusion)
# VH: MAQVQLVQSGAEVKKPGSSVKVSCKASGGTFSSYAISWVRQAPGQGLEWMGGIIPIFGTANYAQKFQGRVTITADESTSTAYMELSSLRSEDTAVYYCARDQGYYYGSGGLDYWGQGTLVTVSS
# VL: DIQMTQSPSSLSASVGDRVTITCRASQSISSYLNWYQQKPGKAPKLLIYAASSLQSGVPSRFSGSGSGTDFTLTISSLQPEDFATYYCLQDYNYPLTFGGGTKVEIK
# B4: 3D9 TpoR agonist antibody (Fc fusion, not shown: a dimerising Fc or GST)
# scFv: MAQVQLVQSGAEVRKVGSSVKVSCKASRDTFNTYGISWVRQAPGQGLEWMGGIIPIFGTADYAQKFRGRVTITADESTSTAYMELSSLRSEDTAVYYCARDRKLGGSDYWGQGTLVTVSSGGGGSGGGGSGGGGSDIVMTQSPSSVSASVGDKVTITCRASQGLGRWLAWYQQEPGKAPKLLIYAASTLQRGVPSRFSGSGSGTDFTLTISSLQPEDFATYYCQQSNSFPWTFGQGTKLEIKR
# Columns and labels:
# [1] = target: T1, extracellular domain of hEpoR-his tag (human, UniProt P19235 25-250); experiment: pull-down: antibody mixed with hEpoR extracellular domain-his tag, captured on His-tag Dynabeads, bound antibody detected with anti-Fc:HRP (OD405nm); control is beads without EpoR
# T1 construct: extracellular domain; also called EpoR ECD-his tag monomer protein; His-tagged monomeric EpoR; not shown: His tag
# T1 sequence (looked up): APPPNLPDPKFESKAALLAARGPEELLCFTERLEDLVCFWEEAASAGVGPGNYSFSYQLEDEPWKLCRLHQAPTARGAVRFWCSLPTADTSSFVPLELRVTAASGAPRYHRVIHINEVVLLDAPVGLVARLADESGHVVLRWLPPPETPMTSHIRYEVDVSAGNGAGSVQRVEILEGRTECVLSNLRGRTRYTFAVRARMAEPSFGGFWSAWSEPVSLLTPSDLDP
# Procedure: The single antibodies V-1 and V-3 and the bispecific antibody V-1/V-3 (BsAb) that were generated using “Knob-into-ole” technology were purified from HEK293F cells. (A) The purified proteins were analyzed using 7% Tris-Acetate gels with TA running buffer. (B) Antibody binding to the EpoR was tested by a “pull down” experiment. Different antibodies were mixed with the extracellular domain of hEpoR-his tag. The complexes were captured with His-tag Dynabeads and bound antibodies were detected with an anti-Fc:HRP antibody.
# [2] = target: T1, extracellular domain of hEpoR-his tag; experiment: BLI (Octet Red), scFv-Fc captured on anti-human IgG sensors, EpoR ectodomain monomer titrated, 1:1 model; V-3; competed by EPO
# Procedure: (§1) Kinetic characterization using bio-layer interferometry (BLI). Experiments were performed using the Octet Red (Fortebio Inc.). The scFv Fc fusion proteins were captured with anti-Human IgG Capture (AHC) Biosensors (kinetics grade Cat# 18-5060). A titration series of the purified EpoR ectodomain monomer protein was measured against the immobilized scFv Fc in the association/dissociation cycle. The data set was fit to a 1:1 binding model to determine ka, kd and Kd.
# (§2) Thus, both EPO and the bispecific antibody achieve the obligatory asymmetric binding to the EpoR that is necessary for full agonist activity, albeit in different ways. In the case of EPO, asymmetry is achieved by the use of two distinct interfaces (site 1 and site 2) that bind with different affinities to a single site in the homodimeric EpoR (Watowich, J. Invest. Med. 59:1067, 2011). By contrast, the heterodimeric bispecific antibody achieves asymmetry by using its two different binding specifies to interact with different sites on the EpoR (FIG. 6).
# [3] = target: T1, extracellular domain of hEpoR-his tag; experiment: BLI (Octet Red), scFv-Fc captured on anti-human IgG sensors, EpoR ectodomain monomer titrated, 1:1 model; V-1; not competed by EPO
# Procedure: as §1, §2
# [4] = target: T2, TpoR-IL6ST chimeric receptor on HEK293T SIE-bla reporter cells (clone CR2-9) (human, UniProt P40238 26-527; P40189 651-918, limits assumed); experiment: cell-based or functional assay
# T2 sequence (looked up): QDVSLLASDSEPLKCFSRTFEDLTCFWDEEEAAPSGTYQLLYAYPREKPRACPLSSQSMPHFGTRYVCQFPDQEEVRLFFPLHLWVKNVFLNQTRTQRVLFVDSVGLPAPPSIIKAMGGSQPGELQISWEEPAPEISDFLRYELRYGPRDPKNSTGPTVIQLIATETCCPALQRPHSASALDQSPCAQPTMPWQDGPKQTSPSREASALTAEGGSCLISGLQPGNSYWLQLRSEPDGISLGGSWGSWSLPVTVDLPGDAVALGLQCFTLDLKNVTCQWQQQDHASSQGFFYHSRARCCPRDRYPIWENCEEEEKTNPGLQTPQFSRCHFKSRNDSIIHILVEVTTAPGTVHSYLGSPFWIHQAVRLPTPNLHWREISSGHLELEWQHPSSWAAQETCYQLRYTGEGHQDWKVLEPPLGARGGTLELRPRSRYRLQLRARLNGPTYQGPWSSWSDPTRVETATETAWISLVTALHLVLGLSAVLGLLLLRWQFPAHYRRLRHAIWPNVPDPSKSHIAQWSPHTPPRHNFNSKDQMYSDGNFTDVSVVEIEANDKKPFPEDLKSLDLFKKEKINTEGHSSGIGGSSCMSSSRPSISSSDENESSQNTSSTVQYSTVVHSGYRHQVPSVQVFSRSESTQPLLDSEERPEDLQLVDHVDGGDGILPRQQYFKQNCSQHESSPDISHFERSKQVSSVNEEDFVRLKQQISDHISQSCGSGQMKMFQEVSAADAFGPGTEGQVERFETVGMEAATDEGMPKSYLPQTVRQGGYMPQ
# [5] = target: T3, wild-type human TpoR on Ba/F3-hMpl cells (human, UniProt P40238 26-635); experiment: cell-based or functional assay
# T3 sequence (looked up): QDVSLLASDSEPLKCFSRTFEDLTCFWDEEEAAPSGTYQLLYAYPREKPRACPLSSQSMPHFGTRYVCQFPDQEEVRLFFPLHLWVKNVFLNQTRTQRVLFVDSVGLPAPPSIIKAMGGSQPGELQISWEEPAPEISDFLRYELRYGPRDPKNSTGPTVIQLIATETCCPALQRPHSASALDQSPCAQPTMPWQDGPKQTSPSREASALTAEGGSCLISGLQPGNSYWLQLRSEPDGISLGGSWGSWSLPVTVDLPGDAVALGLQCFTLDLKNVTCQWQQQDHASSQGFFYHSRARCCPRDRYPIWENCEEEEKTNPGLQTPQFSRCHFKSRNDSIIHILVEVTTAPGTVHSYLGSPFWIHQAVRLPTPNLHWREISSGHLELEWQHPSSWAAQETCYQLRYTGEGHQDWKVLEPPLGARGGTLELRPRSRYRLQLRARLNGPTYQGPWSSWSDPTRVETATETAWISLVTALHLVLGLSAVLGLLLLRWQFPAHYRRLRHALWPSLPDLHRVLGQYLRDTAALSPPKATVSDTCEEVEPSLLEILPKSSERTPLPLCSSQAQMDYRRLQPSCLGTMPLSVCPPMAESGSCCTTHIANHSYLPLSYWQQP
binder,measurement,setting,value
B1,binding result,[1],binds
B2,Kd,[2],45 nM
B3,Kd,[3],26 nM
B4,"EC50, short-term fluorescence (FRET beta-lactamase) reporter assay",[4],~0.01 nM
same,"EC50, long-term proliferation assay (MTS) of Ba/F3-hMPL cells",[5],0.005 nM
